Experimental data published in the supplement of paper PMC10567573.

B1: SNX8 (parent)
chain: LHQETQLIHVYLPLTSHILRAFVN
B2: MMP1 (parent)
chain: FHGTRQYKFDPKTKRILTLQKANS

Variants of: B1
Assay: protein stability index of a GFP-peptide fusion (GPS, HEK-293T) (PSI 1-6); higher = more stable
Conditions: c terminus: a fixed tail appended
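Also: lentivirally expressed fusions sorted by FACS into six bins by GFP to DsRed ratio, PSI derived from sequencing read proportions per bin multiplied by bin number.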

Protein stability index: each site, then its substitutions
H2: Q 2.5; F 2.04; V 2.6; R 1.82; S 2.03; T 1.68; P 2.04; G 2.72; Y 2.96; W 3.21; L 1.83; N 2.5; D 3.62
I8: D 2.22; W 2.6; L 1.67; F 2.5; Y 4.04; Q 1.68; R 1.78; S 2.03; K 2.3; M 3.01; A 2.03; N 2.09; P 1.65; C 2.87; G 1.42; E 2.44; V 1.45; T 2.1
Q6: N 1.6; V 3.73; S 2.04; W 3.31; R 3.29; P 2.41; I 2.75; H 2.75; C 2.63; F 2.33; G 2.55; L 3.52; D 2.01; K 1.7; M 2.2; E 2.88
L1: D 3.07; I 2.88; A 2.75; V 2.64; N 2.75; Q 2.18; K 3.1; T 3.62; R 2.06; P 3.01; E 3.18; F 3.82; H 1.85
P13: M 2.55; A 3.59; Q 2.68; R 2.29; V 1.85; T 2.91; L 3.99; Y 1.95; I 1.9; W 3.14; K 1.72; S 3; H 1.38; D 2.7
E4: W 1.8; G 2.64; A 1.83; N 3.07; M 2.04; Q 3.2; C 1.83; R 2.25; V 3.22; Y 2.38; F 2.34; P 2.18; K 4.66; L 2.8; I 2.46; T 1.4; H 1.82
L7: Y 1.91; S 2.37; D 2.17; H 1.98; I 2.73; T 3.64; R 4; P 3.31; E 1.87; M 2.9; G 2.15; K 2.32; N 2.1; C 2.44; Q 2.71; A 2.53
T5: R 2.75; I 3.8; P 1.66; D 1.78; N 3.51; G 2.26; M 2.39; Y 1.85; C 3.39; H 2.17; A 2.03; E 1.98; V 4.08; L 3.03; F 2.83; W 2.22
L12: R 2.48; D 2.19; M 2.71; Y 3.18; K 2.29; F 2.58; H 3.23; Q 3.42; N 2.08; P 2.21; C 2.52; E 1.83; S 1.7; W 3.2; G 3.44; V 1.91; T 2.49
L14: H 2.13; G 3.49; D 2.72; R 2.49; F 1.31; K 3.14; P 2.64; A 2.98; C 3.23; Q 3.75; M 2.41; N 4.27
Y11: G 2.29; C 3.22; M 3.64; N 2.81; K 2.95; T 1.89; L 2.05; P 2.78; R 1.86; A 2.63; F 2.14; Q 3.1; D 1.47; S 1.91; V 1.99
H9: L 3.18; C 3.65; E 1.65; S 2.4; T 2.96; Y 3.11; A 2.16; I 2.82; W 2.31; N 2.43; M 2.9; K 1.43; P 2.22; V 3.08; G 3.08
V10: P 1.76; A 1.19; R 2.21; M 2.22; Y 2.24; N 1.88; W 2.2; Q 1.71; K 1.23; S 2.33; T 1.73; E 2.87; H 1.66; G 1.51; D 1.87
Q3: E 2.55; I 3.42; D 2.8; H 2.62; S 3.32; A 3.04; K 4.06; N 2.96; R 2.48; V 2.47; P 2.31; F 3.79; M 2.15; C 2.06; L 2.24; Y 3.12; G 2.67; W 2.73

Variants of: B2
Assay: as above
Conditions: c terminus: a fixed tail appended

Protein stability index: each site, then its substitutions
Y7: H 2.18; G 1.77; D 2.38; C 1.97
T4: S 2.08; Q 2.95; E 2.29; N 2.38
Q6: M 1.82; V 2.96
K8: Q 1.78; V 1.74; R 2.65
K12: V 1.55
P11: T 2.43; K 1.83; Q 2.29
A22: N 2.09; C 2.07; L 1.52; F 1.77
T18: P 2.18; M 1.74; C 1.55; D 3.38; R 1.68; Q 1.73
R5: Q 1.83; T 1.68; N 1.98; P 2.32; D 2.38; F 1.7; I 2.21; K 2.55; S 1.72
F9: N 2.39; P 2.13; H 1.98; A 1.74; D 2.27; S 2.08
L17: G 2.38; I 1.78; K 2.1; H 2.17; M 1.53; Y 1.95
K14: P 2.1; F 1.98; G 1.54; C 2.18; Q 1.82
I16: L 2.21; N 1.84; S 1.7; T 1.91; R 1.36; D 2.5; A 2.8; W 1.95
T13: Q 2.37; W 2.07; P 1.8; E 1.69; Y 1.65; N 1.96; F 1.68
S24: I 2.09
H2: P 1.68; S 2.39; M 2.53; F 2.34; R 3.04; T 2.04
G3: F 1.58; A 2.02; N 2.77; M 1.78; P 2.68
Q20: Y 1.66; G 2.01; T 1.8; I 1.78; C 2.16
N23: L 2.08; D 2.46; A 1.37; T 1.29; K 3.21; M 1.8; P 1.67
K21: Q 1.9; Y 2.43; T 1.54; N 2.27
F1: K 3.33; E 3.91; W 2.35
R15: V 1.77; P 2.29; T 1.83; Q 2.16; S 1.91; E 1.83; H 1.86; D 1.86
L19: M 1.91; W 2.61; F 1.68; V 2.03; T 2.2
D10: S 2.36; H 1.95; E 1.7; K 1.83; T 2.03; V 1.42; R 1.62
